Laboratory results as given in US12522656B2, “Anti-G-protein alpha antibody” (CISBIO BIOASSAYS, priority 2020, dated 2026).

Assays:
[1] = molecular target: Delta Opioid GPCR (Homo sapiens, UniProt P41143); experiment: Activation assay format 2A on Delta Opioid GPCR, agonist/antagonist modulation of TR-FRET signal; details: fixed SNC162 200 nM; increasing concentration of antagonist; GTPgN-octyl-C2 + DSV36S-d2; FIG. 16B
[2] = molecular target: T1, DOR receptors (Homo sapiens, UniProt P41143); experiment: Activation of DOR in HEK293 membranes read by TR-FRET (fluorescent GTP analog + labeled antibody); format: biochemical; details: SNC162 10 μM; read as increase of FRET signal with DSV36S-d2 / DSV38S-d2
T1 construct: expressed in transfected cells; host or cells: HEK293 membranes
T1 sequence (P41143 whole entry): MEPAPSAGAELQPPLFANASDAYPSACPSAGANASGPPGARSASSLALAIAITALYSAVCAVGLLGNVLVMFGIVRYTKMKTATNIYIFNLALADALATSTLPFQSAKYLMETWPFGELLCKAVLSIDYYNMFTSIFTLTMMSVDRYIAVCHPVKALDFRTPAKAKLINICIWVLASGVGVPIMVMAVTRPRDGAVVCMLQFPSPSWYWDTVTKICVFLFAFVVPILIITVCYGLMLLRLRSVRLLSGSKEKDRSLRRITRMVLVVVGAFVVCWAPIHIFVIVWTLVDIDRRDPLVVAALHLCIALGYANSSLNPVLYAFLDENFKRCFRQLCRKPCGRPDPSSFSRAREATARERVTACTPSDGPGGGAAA
Experimental: (§1) HEK293 membranes expressing the DOR receptor were prepared 4× for a final amount in the wells of 10 μg. The antibodies DSV36S-d2, DSV38S-d2, SC13533-d2 and anti-FLAG-d2 were prepared 4× for a final concentration in the wells of 10 nM.
(§2) The reagents were distributed in the 384-well plates as follows: • 1) 5 μl of DOR membranes was put in each well, • 2) 5 μl of GTPgN-octyl-C2 labeled with europium cryptate or GTPgO-linker-Cy5 was added to each well, • 3) 5 μl of antibody DSV36S or DSV38S or SC13533 or DSV 26S or DSV3S or DSV 39S labeled with d2 or DSV 36S or SC13533 labeled with terbium cryptate was added to each well, • 4) 5 μl of buffer or SNC 162 or GTPgS was added to each well.
(§3) The plates were incubated for 20 h at room temperature before reading the HTRF signal.

[3] = molecular target: T2, Gαi1 (Homo sapiens, UniProt P63096); experiment: HTRF competition: unlabeled antibodies versus binding of SC13533-d2 on G-protein αi1; details: unlabeled antibody 0.01-100 nM; SC13533-d2 10 nM; GTPgS 10 μM
T2 sequence (P63096 whole entry): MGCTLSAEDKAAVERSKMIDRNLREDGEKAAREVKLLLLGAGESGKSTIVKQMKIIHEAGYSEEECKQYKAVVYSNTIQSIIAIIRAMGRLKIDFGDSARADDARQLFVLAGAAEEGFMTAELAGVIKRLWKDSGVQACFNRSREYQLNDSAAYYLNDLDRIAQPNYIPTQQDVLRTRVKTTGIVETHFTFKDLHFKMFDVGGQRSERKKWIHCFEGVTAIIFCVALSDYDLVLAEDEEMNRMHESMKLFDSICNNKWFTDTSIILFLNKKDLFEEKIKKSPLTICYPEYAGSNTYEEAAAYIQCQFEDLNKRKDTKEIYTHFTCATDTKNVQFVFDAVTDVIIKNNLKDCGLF
Experimental: These two reagents were prepared in one and the same solution and were preincubated for 30 minutes at room temperature before being distributed in the wells. The cold antibodies DSV36S, DSV38S and SC13533 were prepared 4× for final concentrations in the wells between 0.01 and 100 nM. The antibody SC 13533-d2 was prepared 4× for a final concentration of 10 nM.
The reagents were distributed in the 384-well plates as follows: • 1) 10 μl of the preincubated mixture of G-protein αi1+GTPgS was put in each well, • 2) 5 μl of the unlabeled antibody DSV36S or DSV38S or SC56536 or AM05302PU-N or SC13533 was added to each well, • 3) The plates were incubated for 30 minutes at room temperature, • 4) 5 μl of the anti Twin-Strep-tag-Lumi4 Tb antibody and of the antibody SC13533-d2 were added to each well.
(§4) The plates were incubated for 1 h at room temperature before reading the HTRF signal.

[4] = molecular target: T3, Gα12 (Homo sapiens, UniProt Q03113); experiment: HTRF selectivity assay, G-protein α overexpressed in HEK293 cells; format: binding; details: antibody-d2 10 nM, 20 h
T3 construct: host or cells: HEK293
T3 sequence (Q03113 1-381): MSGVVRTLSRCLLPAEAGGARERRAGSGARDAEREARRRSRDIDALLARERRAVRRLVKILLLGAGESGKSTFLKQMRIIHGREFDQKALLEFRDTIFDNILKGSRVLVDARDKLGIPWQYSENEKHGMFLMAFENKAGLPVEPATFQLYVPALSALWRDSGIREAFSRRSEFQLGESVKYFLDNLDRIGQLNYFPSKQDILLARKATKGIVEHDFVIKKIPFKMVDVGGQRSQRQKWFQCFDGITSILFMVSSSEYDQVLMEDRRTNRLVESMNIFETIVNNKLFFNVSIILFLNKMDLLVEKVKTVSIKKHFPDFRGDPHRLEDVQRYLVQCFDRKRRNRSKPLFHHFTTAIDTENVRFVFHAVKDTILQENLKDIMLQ
Experimental: (§5) A solution containing 1 million HEK cells/ml was prepared in OptiMEM medium. Mixtures of plasmids/Lipofectamine containing 150 ng/well of plasmids and 0.375 μl of lipofectamine were prepared in OptiMEM medium 30 minutes before adding them to the 96-well plate with black-bottomed wells.
(§6) Distribution of the reagents in each well of the black microplate suitable for cell culture: • 1) 50 μl per well of polyornithine was incubated for 30 minutes at room temperature and then the solution was withdrawn from each well by aspiration. • 2) 50 μl of the preparation of HEK293 (cell density of 50000 cells per well) was added to each well • 3) 50 μl of the mixture of plasmids coding for a G-protein+lipofectamine was added to each well.
(§7) The microplates were incubated for 24 h at 37° C. and 5% CO2 (regulated stove).
(§8) The antibodies DSV36S-d2, DSV38S-d2 and SC13533-d2 were prepared 4× for a final concentration in the wells of 10 nM.
(§9) The reagents were distributed on the 384-well plates as follows: • 1) The OptiMEM culture medium was aspirated, • 2) 25 μl of buffer or GDP or GTP was added to each well, • 3) 25 μl of buffer was added to each well, • 4) 25 μl of antibody DSV36S-d2 or DSV38S-d2 or SC13533-d2 or anti-FLAG-d2 was added to each well, • 5) 25 μl of anti Twin-Strep-tag-Lumi4 Tb antibody was added to each well.
(§10) The microplates were incubated for 20 h at room temperature before reading the HTRF signal.

[5] = molecular target: T4, Gαi3 (Homo sapiens, UniProt P08754); experiment: as above; format: binding; details: antibody-d2 10 nM, 20 h
T4 construct: host or cells: HEK293
T4 sequence (P08754 whole entry): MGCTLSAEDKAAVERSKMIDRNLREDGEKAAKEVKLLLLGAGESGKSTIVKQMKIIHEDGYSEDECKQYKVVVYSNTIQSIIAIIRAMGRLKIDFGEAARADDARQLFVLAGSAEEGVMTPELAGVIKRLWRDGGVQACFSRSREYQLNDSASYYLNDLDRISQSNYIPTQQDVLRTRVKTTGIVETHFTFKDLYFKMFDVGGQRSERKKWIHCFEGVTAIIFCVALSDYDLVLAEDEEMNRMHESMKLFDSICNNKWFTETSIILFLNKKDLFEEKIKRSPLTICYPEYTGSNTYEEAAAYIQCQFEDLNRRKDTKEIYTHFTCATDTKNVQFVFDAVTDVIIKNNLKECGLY
Experimental: as §5, §6, §7, §8, §9, §10

[6] = molecular target: Gαo (Homo sapiens, UniProt P09471); experiment: as above; format: binding; details: antibody-d2 10 nM, 20 h
Chain of Gαo (P09471 whole entry): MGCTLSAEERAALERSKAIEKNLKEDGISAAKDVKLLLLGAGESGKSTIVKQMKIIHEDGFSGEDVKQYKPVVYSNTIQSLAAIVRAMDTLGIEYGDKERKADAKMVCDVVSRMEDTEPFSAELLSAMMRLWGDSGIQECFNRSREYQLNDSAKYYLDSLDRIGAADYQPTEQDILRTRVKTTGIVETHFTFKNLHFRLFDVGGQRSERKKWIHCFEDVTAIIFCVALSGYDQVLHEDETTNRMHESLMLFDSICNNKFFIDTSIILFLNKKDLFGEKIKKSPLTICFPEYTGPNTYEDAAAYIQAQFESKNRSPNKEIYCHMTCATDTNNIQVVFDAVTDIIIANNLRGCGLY
Experimental: as §5, §6, §7, §8, §9, §10

[7] = molecular target: T5, Gα13 (Homo sapiens, UniProt Q14344); experiment: as above; format: binding; details: antibody-d2 10 nM, 20 h
T5 sequence (Q14344 1-377): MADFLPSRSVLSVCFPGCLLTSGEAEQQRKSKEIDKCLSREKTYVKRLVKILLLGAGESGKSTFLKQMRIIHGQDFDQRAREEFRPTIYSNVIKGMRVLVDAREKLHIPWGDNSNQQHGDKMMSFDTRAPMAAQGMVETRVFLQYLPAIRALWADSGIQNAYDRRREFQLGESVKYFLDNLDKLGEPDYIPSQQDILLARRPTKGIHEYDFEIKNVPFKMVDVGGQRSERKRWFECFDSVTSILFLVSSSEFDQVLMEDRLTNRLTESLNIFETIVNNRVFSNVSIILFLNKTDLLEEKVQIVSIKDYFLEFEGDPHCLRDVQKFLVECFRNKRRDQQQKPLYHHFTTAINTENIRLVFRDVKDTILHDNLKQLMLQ
Experimental: as §5, §6, §7, §8, §9, §10

[8] = molecular target: Gαs (Homo sapiens, UniProt P63092); experiment: as above; format: binding; details: antibody-d2 10 nM, 20 h
Chain of Gαs (P63092 whole entry): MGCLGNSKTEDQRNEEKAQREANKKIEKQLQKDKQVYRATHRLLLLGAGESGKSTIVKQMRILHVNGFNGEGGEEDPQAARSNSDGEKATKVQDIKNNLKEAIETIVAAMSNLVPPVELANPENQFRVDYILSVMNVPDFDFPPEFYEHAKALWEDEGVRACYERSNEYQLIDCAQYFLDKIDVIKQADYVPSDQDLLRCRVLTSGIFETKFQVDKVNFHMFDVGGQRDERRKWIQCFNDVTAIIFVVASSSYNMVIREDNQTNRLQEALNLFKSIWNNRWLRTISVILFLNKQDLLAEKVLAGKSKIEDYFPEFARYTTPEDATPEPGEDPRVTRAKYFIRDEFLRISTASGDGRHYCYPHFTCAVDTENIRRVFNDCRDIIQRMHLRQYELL
Experimental: as §5, §6, §7, §8, §9, §10

[9] = molecular target: T6, Gαz (Homo sapiens, UniProt P19086); experiment: as above; format: binding; details: antibody-d2 10 nM, 20 h
T6 construct: host or cells: HEK293
T6 sequence (P19086 whole entry): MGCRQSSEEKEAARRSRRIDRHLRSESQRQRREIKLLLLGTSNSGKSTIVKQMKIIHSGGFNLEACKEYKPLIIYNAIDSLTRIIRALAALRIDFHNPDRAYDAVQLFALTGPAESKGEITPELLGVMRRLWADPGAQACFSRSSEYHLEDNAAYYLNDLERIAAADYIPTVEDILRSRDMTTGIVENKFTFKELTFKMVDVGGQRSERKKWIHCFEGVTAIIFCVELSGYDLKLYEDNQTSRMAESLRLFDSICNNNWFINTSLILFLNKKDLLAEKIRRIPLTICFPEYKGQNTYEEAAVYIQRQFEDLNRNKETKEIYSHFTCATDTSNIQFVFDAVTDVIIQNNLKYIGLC
Experimental: as §5, §6, §7, §8, §9, §10

[10] = molecular target: T7, Gαq (Homo sapiens, UniProt P50148); experiment: as above; format: binding; details: antibody-d2 10 nM, 20 h
T7 sequence (P50148 1-359): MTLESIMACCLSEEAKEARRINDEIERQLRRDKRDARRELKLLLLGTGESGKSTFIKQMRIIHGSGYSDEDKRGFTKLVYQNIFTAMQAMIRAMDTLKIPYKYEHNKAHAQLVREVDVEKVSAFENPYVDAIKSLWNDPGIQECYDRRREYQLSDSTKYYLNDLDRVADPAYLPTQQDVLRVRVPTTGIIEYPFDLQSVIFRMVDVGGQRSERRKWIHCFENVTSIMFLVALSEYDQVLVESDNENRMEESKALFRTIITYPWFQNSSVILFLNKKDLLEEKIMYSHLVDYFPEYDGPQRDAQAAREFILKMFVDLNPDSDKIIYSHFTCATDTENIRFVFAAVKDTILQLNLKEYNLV
Experimental: as §5, §6, §7, §8, §9, §10

[11] = molecular target: T2, Gαi1; experiment: as above; format: binding; details: antibody-d2 10 nM, 20 h
Experimental: as §5, §6, §7, §8, §9, §10

[12] = molecular target: Gαi2 (Homo sapiens, UniProt P04899); experiment: as above; format: binding; details: antibody-d2 10 nM, 20 h
Chain of Gαi2 (P04899 whole entry): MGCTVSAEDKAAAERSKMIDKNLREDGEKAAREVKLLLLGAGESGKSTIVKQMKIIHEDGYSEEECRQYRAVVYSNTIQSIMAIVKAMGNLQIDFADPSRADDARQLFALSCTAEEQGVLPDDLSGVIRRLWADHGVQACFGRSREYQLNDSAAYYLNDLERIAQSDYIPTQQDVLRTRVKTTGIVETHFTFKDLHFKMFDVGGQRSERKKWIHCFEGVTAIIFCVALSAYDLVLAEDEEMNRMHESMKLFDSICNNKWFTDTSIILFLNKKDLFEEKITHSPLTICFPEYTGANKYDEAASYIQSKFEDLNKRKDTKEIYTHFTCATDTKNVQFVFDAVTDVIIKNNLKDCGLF
Experimental: as §5, §6, §7, §8, §9, §10

[13] = molecular target: T2, Gαi1; experiment: HTRF competition: unlabeled antibodies versus binding of DSV36S-d2 on G-protein αi1; details: unlabeled antibody 0.001-1 μM; DSV36S-d2 10 nM; GTPgS 100 μM
Experimental: These two reagents were prepared in one and the same solution and were preincubated for 30 minutes at room temperature before being distributed in the wells. The cold antibodies DSV36S, DSV38S, DSV26S, DSV3S, and DSV39S were prepared 4× for final concentrations in the wells between 0.001 and 1 μM. The antibody DSV36S-d2 was prepared 4× for a final concentration of 10 nM.
The reagents were distributed in the 384-well plates as follows: • 1) 10 μl of the preincubated mixture of G-protein αi1+GTPgS was put in each well, • 2) 5 μl of the unlabeled antibodies DSV36S, DSV38S, DSV26S, DSV3S, and DSV39S was added to each well, • 3) The plates were incubated for 30 minutes at room temperature, • 4) 5 μl of the anti Twin-Strep-tag-Lumi4 Tb antibody and of the antibody DSV36S-d2 were added to each well.
as §4

[14] = molecular target: T2, Gαi1; experiment: Determination of affinity (Kd) of d2-labeled antibodies for G-protein αi1 by HTRF/FRET; format: binding
Experimental: These two reagents were prepared in one and the same solution and were preincubated for 30 minutes at room temperature before being distributed in the wells. The antibodies DSV36S-d2, DSV38S-d2 and SC13533-d2 were prepared 4× for final concentrations in the wells between 0.01 and 10 nM depending on the antibodies.
The reagents were distributed in the 384-well plates as follows: • 1) 10 μl of the preincubation mixture of G-protein αi1+buffer only or GTPgS or GDP was put in each well, • 2) 5 μl of the antibody DSV36S or DSV38S or SC13533 labeled with d2 was added to each well, • 3) 5 μl of the anti Twin-Strep-tag-Lumi4 Tb antibody was added to each well.
The plates were incubated for 24 h at room temperature before reading the HTRF signal.
Moreover, the antibody titration curves obtained make it possible to calculate the affinity (Kd) of these different antibodies for the G-protein αi1. This was carried out using the GraphPad Prism software by applying a “one site specific binding” model to the HTRF data.

[15] = test system: G-proteins α; experiment: TR-FRET signal of labeled antibody combined with fluorescent GTP analog on HEK293 membranes expressing the DOR receptor; format: binding; details: for FRET signal with GTPgN-octyl-C2-Europium cryptate: antibody labeled with d2 10 nM, GTP analog 6 nM, FIG. 11
Experimental: as §1, §2, §3

Chain of Delta Opioid GPCR (P41143 whole entry): as the sequence (P41143 whole entry) above

## Oc1ccc2c3c1O[C@H]1c4[nH]c5ccccc5c4C[C@@]4(O)[C@@H](C2)N(CC2CC2)CC[C@]314 [Naltrindole]
[1]
  effect on activation by SNC162 (TR-FRET signal, HTRF ratio): inhibited

## C=CCN1C[C@H](C)N([C@@H](c2ccccc2)c2ccc(C(=O)N(CC)CC)cc2)C[C@H]1C [SNC162]
[2]
  activation of the DOR receptors overexpressed in the membranes: caused activation of the DOR receptors

B1: DSV36S: anti-G-protein alpha antibody; VH consists of SEQ ID NO: 14, VL of SEQ ID NO: 15; generated by Cisbio Bioassays (antibody, V domains shown)
VH: EVQLQQSGAELVRPGALVKLSCKASGFNIKDYYMHWVKQRPEQGLEWIGWIDPENGNTIYDPKFQGKASITADTSSNTAYLQLSSLTSEDTAVYYCTRGGGYYSDWYFDVWGAGTTVTVSS
VL: QIVLTQSPAIMSASPGEKVTMTCSASSSVSYMHWYQQKSGTSPKRWIYDTSKLASGVPARFSGSGSGTSYSLTISSMEAEDAATYYCQQWSSNPPITFGAGTKLELK
modifications: Variable domain of the heavy chain (VH); Light Chain Variable Domain (VL)
notes: anti-G-protein alpha antibody; generated by Cisbio Bioassays
[3]
  inhibition of the HTRF signal obtained with antibody SC13533-d2: not capable of inhibiting
[4]
  HTRF signal with anti-Twin-Strep-tag-Lumi4 Tb: did not give an HTRF signal
[5]
  HTRF signal with anti-Twin-Strep-tag-Lumi4 Tb: positive HTRF signal
[6]
  HTRF signal with anti-Twin-Strep-tag-Lumi4 Tb: positive HTRF signal
[7]
  HTRF signal with anti-Twin-Strep-tag-Lumi4 Tb: did not give an HTRF signal
[8]
  HTRF signal with anti-Twin-Strep-tag-Lumi4 Tb: did not give an HTRF signal
[9]
  HTRF signal with anti-Twin-Strep-tag-Lumi4 Tb: positive HTRF signal
[10]
  HTRF signal with anti-Twin-Strep-tag-Lumi4 Tb: did not give an HTRF signal
[11]
  HTRF signal with anti-Twin-Strep-tag-Lumi4 Tb: positive HTRF signal
[12]
  HTRF signal with anti-Twin-Strep-tag-Lumi4 Tb: positive HTRF signal
[13]
  inhibition of the HTRF signal obtained with antibody DSV36S-d2: completely inhibited
[14]; G-protein αi1 bound to a nucleotide (in particular GTPgS) versus empty
  signal and affinity depending on the state of G-protein αi1: higher signal and higher affinity
[14]; antibodies labeled with d2, in the presence and in the absence of nucleotide (GTPgS or GDP)
  capacity for binding the G-protein αi1 (HTRF signal): capable of binding the G-protein αi1
[15]; condition buffer (absence of SNC162)
  FRET signal with GTPgN-octyl-C2-Europium cryptate: moderate but significant FRET signal
[15]; on adding SNC162 10 μM
  FRET signal with GTPgN-octyl-C2-Europium cryptate: increase of this FRET signal
[15]; unactivated membrane preparations, antibodies labeled with d2, FIG. 12
  FRET signal with Europium GTPgN-octyl-C2-cryptate: increase of the FRET signal
